From patent US11214614B2, “LTBP complex-specific inhibitors of TGFβ and uses thereof” (Scholar Rock, Inc., priority 2019, dated 2022) come the findings set out here.

One assay deals with huLTBP3 proTGFβ1 (Homo sapiens, UniProt P01137+Q9NS15). Nature of the assay: Octet (BLI) binding, IgG captured on AHC tips, antigen at 100 nM. The note with it: Table 9, cycle 3, IgG1-agly; for Hu LTBP3-proTGFβ1 Kon: 1:1 fit; for Hu LTBP3-proTGFβ1 Koff: 5-minute dissociation. As for the experimental part: (§1) Suitable methods for in vitro binding assays to determine the parameters of binding kinetics include Bio-layer Interferometry (BLI)-based assays such as Octet, and surface plasmon resonance (SPR)-based assays, such as Biacore systems (see, for example: biophysics.bioc.cam.ac.uk/wp-content/uploads/2011/02/Biacore_assay_handbook.pdf).
(§2) The affinity of SR-AB10, SR-AB2 and SR-AB13 was measured by Octet assay. The protocol used to measure the affinity of the antibodies to the complexes provided herein is summarized below.
(§3) • 96 well black polypropylene plates • AHC Octet tips (anti-human IgG Fc capture tips) (FortdBio) • 10× kinetics buffer (FortdBio) (diluted to 1× in PBS) • reiner Bio-One 96-Well Half Area Microplates (VWR cat #82050-044) Procedure:
(§4) Notes: The volume within each well during an Octet experiment is 100 uL.
(§5) A shake speed of 1000 rpm is used for all assay steps.
(§6) Pre-Wet Tips: • Biosensors must be pre-wet in 1× kinetics buffer (lx KB) for at least 10 minutes before starting an experiment. This can be done inside the Octet or on the bench.
(§7) Loading: • Tips are baselined in 1× KB for 1 minute before loading. • AHC tips are loaded with antibody at a concentration of 1 μg/mL (˜7 nM) for 3 minutes. A limit is set so that loading will stop when any one sensor reaches a response of 1 nanometer. • Tips are baselined in buffer for 1 minute after loading. The antibody should not dissociate from the tips during this time.
(§8) Antigen Association: • TGFβ1 in complex with various presentation molecules was associated to the immobilized antibodies at a single concentration of 100 nM in 1× KB.
(§9) Antibody Dissociation: • Dissociation in 1×KB was performed for 3 minutes.
(§10) Data Analysis using ForteBio Data analysis software 8.2: • Processing: align Y axis to last 5 seconds of baseline, perform inter-step correction with align to dissociation, and perform Savitzky-Golay filtering. • Analysis: 1:1 fitting model is utilized. Fitting is local and full. […] Results:
(§11) LTBP complex-specific antibodies from the first round of affinity maturation/optimization (SR-AB14, SR-AB16, SR-AB17, SR-AB18, SR-AB19) were selected for a second round of affinity maturation/optimization (i.e., CDR-H3 mutagenesis as described herein) and particular progeny antibodies (SR-AB20, SR-AB21, SR-AB22, SR-AB23, SR-AB24, SR-AB25, SR-AB26, SR-AB27, SR-AB28, and SR-AB29) were assessed for their ability to bind various proTGFβl constructs. Binding affinities of the optimized antibodies were measured by Octet against human LTBP1-proTGFβI, human LTBP3-proTGFb1, mouse LTBP1-proTGFβ1, mouse LTBP3-proTGFb1, and GARP-proTGFβl complexes, essentially as described in Example 6. In brief, test antibodies were immobilized to the surface of anti-human Fc capture biosensors (AHC) (ForteBio®) and binding was then tested against the various TGFβ1 complexes at a single concentration of 100 nM to assess binding affinities. The antigens were allowed to associate for 3 minutes followed by a 5-minute dissociation. Kinetics buffer (ForteBio®) was used throughout the experiment, and KD was determined using a 1:1 fitting model for each antibody antigen pair.
(§12) Binding affinities of the optimized antibodies were measured by Octet against human LTBP1-proTGFβ1, human LTBP3-proTGFβ1, mouse LTBP1-proTGFβ1, mouse LTBP3-proTGFβ1, and GARP-proTGFβ1 complexes, essentially as described in Example 6. In brief, test antibodies were immobilized to the surface of anti-human Fc capture biosensors (AHC) (ForteBio®) and binding was then tested against the various TGFβ1 complexes at a single concentration of 100 nM to assess binding affinities. The antigens were allowed to associate for 3 minutes followed by a 5-minute dissociation. Kinetics buffer (ForteBio®) was used throughout the experiment, and KD was determined using a 1:1 fitting model for each antibody antigen pair.
On the technique in general: In BLI a coated tip is dipped into the sample, and binding shifts an interference pattern.

The target in the next assay is huLTBP1 proTGFβ1 (Homo sapiens, UniProt P01137+Q14766). The assay is described as above. The following applies: Table 9, cycle 3, IgG1-agly; for Hu LTBP1-proTGFβ1 Kon: 1:1 fit; for Hu LTBP1-proTGFβ1 Koff: 5-minute dissociation. As for the experimental part: as §1, §2, §3, §4, §5, §6, §7, §8, §9, §10, §11
as §12, with “pair. […]” for “pair.”

Sequence of huLTBP1 proTGFβ1 (P01137 30-390): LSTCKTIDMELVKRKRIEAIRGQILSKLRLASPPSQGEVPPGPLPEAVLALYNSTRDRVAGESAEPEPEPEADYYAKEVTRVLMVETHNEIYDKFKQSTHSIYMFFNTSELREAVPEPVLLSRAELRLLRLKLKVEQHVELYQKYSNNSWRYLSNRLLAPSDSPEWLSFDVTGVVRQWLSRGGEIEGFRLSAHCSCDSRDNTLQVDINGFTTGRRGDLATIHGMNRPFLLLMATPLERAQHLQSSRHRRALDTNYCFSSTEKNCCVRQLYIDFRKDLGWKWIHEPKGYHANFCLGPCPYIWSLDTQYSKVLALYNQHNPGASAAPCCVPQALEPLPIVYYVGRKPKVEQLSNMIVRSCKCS
Sequence of huLTBP1 proTGFβ1 (Q14766 347-1721 limits assumed): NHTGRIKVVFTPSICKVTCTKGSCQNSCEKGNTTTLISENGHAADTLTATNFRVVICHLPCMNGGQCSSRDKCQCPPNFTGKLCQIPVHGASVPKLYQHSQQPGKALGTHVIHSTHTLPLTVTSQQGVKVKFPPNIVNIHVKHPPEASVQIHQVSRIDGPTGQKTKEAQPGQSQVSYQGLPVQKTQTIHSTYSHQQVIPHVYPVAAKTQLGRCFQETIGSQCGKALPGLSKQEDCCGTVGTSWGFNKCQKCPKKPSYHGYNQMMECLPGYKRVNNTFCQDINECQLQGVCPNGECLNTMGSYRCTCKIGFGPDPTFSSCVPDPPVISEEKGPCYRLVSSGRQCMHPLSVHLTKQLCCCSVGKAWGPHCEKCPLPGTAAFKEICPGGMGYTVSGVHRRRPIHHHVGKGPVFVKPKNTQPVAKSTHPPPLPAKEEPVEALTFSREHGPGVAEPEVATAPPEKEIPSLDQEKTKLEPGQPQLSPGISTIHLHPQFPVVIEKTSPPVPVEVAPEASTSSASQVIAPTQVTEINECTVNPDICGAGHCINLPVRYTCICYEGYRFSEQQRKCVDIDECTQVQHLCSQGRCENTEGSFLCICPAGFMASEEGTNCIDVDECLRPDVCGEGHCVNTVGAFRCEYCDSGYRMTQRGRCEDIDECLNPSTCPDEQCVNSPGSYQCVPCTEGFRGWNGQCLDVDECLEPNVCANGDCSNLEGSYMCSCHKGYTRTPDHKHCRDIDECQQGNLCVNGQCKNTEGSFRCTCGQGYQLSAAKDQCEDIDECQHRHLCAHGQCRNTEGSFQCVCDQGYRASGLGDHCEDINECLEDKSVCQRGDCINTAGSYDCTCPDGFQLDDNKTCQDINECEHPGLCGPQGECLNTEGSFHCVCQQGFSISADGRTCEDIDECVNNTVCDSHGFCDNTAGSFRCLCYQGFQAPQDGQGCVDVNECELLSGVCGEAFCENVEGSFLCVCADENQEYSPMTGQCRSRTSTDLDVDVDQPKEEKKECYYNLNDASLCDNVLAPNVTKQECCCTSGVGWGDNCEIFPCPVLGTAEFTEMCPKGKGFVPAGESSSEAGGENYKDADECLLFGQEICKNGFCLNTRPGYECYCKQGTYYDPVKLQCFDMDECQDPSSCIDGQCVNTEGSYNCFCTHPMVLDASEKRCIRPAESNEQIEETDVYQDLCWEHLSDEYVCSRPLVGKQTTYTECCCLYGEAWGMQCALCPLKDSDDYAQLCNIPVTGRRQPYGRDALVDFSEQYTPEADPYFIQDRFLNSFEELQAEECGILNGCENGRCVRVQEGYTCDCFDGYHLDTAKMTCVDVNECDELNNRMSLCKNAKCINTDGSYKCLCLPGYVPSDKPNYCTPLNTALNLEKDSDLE
Sequence of huLTBP3 proTGFβ1 (P01137 30-390): as the sequence (P01137 30-390) above
Sequence of huLTBP3 proTGFβ1 (Q9NS15 44-1303): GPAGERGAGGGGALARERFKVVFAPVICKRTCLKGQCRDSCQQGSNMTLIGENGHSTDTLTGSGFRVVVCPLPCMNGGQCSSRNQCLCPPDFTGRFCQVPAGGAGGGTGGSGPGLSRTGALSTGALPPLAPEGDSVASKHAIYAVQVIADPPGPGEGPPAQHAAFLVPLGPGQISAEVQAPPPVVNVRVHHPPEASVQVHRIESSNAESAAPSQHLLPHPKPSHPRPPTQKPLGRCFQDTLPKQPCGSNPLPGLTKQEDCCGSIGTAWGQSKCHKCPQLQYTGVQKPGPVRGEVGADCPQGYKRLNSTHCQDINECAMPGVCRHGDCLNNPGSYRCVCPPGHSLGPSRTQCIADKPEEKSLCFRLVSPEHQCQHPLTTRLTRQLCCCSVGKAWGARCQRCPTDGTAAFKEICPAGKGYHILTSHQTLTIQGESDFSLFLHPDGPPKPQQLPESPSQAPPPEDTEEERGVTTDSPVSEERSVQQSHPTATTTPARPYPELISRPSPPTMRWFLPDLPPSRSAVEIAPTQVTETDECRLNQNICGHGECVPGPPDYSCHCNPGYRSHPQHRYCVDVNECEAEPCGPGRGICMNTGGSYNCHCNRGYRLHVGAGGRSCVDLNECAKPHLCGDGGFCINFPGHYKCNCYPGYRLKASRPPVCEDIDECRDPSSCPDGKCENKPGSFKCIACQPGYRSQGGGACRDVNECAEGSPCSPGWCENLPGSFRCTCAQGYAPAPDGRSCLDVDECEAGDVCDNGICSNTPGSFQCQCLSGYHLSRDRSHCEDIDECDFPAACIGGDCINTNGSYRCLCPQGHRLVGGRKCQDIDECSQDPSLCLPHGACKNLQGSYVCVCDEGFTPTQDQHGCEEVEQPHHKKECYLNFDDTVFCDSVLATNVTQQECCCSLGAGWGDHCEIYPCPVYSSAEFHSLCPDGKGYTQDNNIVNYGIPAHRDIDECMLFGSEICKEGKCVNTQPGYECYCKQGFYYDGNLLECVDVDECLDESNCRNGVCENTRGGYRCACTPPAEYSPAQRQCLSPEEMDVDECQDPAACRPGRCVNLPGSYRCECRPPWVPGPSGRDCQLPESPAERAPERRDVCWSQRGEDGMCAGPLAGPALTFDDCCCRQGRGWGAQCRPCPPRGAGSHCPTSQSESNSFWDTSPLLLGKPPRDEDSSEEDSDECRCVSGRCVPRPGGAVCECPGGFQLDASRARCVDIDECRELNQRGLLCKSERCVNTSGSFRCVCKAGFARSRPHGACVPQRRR

B1: SR-AB34: cycle 3 light chain-optimized antibody, lineage SR-AB22; CDRs SEQ ID NO: 130-135 (antibody, V domains shown)
VH: QVQLVESGGGVVQPGRSLRLSCAASGFTFRSYVMHWVRQAPGKGLEWVAVISHEGSLKYYADSVKGRFTISRDNSKNTLYLQMNSLRAEDTAVYYCAVPRIAARRGGFGYWGQGTLVTVSS
VL: NFMLTQPHSVSESPGKTVTISCTRSSGNIDNNYVQWYQQRPGSSPTTVIYEDNQRPSGVPDRFSGSIDSSSNSASLTISGLKTEDEADYYCQSYDYDAQGVVFGGGTKLTVL
As for B1, in the assay with huLTBP3 proTGFβ1, the “Hu LTBP3-proTGFβ1 Kon” value turned out to be 372000 M⁻¹ s⁻¹ and the “Hu LTBP3-proTGFβ1 Koff” value worked out at 6.68e-05 s⁻¹. Also, in the assay with huLTBP1 proTGFβ1, the “Hu LTBP1-proTGFβ1 Kon” value was 259000 M⁻¹ s⁻¹ and the “Hu LTBP1-proTGFβ1 Koff” value is 6e-05 s⁻¹.

B2: SR-AB39: cycle 3 light chain-optimized antibody, lineage SR-AB22; CDRs SEQ ID NO: 148-153 (antibody, V domains shown)
VH: QVQLVESGGGVVQPGRSLRLSCAASGFTFRSYVMHWVRQAPGKGLEWVAVISHEGSLKYYADSVKGRFTISRDNSKNTLYLQMNSLRAEDTAVYYCAVPRIAARRGGFGYWGQGTLVTVSS
VL: NFMLTQPHSVSESPGKTVTISCTRSSGLIDDNYVQWYQQRPGSSPTTVIYEDAQRPSGVPDRFSGSIDSSSNSASLTISGLKTEDEADYYCQSYDHDEQGVVFGGGTKLTVL
B2: in the assay with huLTBP3 proTGFβ1, the “Hu LTBP3-proTGFβ1 Kon” value is 441000 M⁻¹ s⁻¹ and the “Hu LTBP3-proTGFβ1 Koff” value is 6e-05 s⁻¹. For the same molecule, in the assay with huLTBP1 proTGFβ1, the “Hu LTBP1-proTGFβ1 Kon” value turned out to be 292000 M⁻¹ s⁻¹ and the “Hu LTBP1-proTGFβ1 Koff” value is 6e-05 s⁻¹.

B3: SR-AB37: cycle 3 light chain-optimized antibody, lineage SR-AB22; CDRs SEQ ID NO: 136-141 (antibody, V domains shown)
VH: QVQLVESGGGVVQPGRSLRLSCAASGFTFRSYVMHWVRQAPGKGLEWVAVISHEGSLKYYADSVKGRFTISRDNSKNTLYLQMNSLRAEDTAVYYCAVPRIAARRGGFGYWGQGTLVTVSS
VL: NFMLTQPHSVSESPGKTVTISCTRSSGLIDDNYVQWYQQRPGSSPTTVIYEDNQRPSGVPDRFSGSIDSSSNSASLTISGLKTEDEADYYCQSYDSDLQRVVFGGGTKLTVL
B3: in the assay with huLTBP3 proTGFβ1, the “Hu LTBP3-proTGFβ1 Kon” value amounted to 545000 M⁻¹ s⁻¹ and the “Hu LTBP3-proTGFβ1 Koff” value came out at 7.58e-05 s⁻¹. Besides, in the assay with huLTBP1 proTGFβ1, the “Hu LTBP1-proTGFβ1 Kon” value came out at 360000 M⁻¹ s⁻¹ and the “Hu LTBP1-proTGFβ1 Koff” value was 0.000118 s⁻¹.

B4: SR-AB41: cycle 3 light chain-optimized antibody, lineage SR-AB23; CDRs SEQ ID NO: 160-165 (antibody, V domains shown)
VH: QVQLVESGGGVVQPGRSLRLSCAASGFTFRSYVMHWVRQAPGKGLEWVAVISHEGSLKYYADSVKGRFTISRDNSKNTLYLQMNSLRAEDTAVYYCARPRIAARRGGFGYWGQGTLVTVSS
VL: NFMLTQPHSVSESPGKTVTISCTRSSGNIDNNYVQWYQQRPGSSPTTVIYEDNQRPSGVPDRFSGSIDSSSNSASLTISGLKTEDEADYYCQSYDYDNQAVVFGGGTKLTVL
As to B4, in the assay with huLTBP3 proTGFβ1, the “Hu LTBP3-proTGFβ1 Kon” value is 255000 M⁻¹ s⁻¹ and the “Hu LTBP3-proTGFβ1 Koff” value stood at 6e-05 s⁻¹. For the same molecule, in the assay with huLTBP1 proTGFβ1, the “Hu LTBP1-proTGFβ1 Kon” value is 203000 M⁻¹ s⁻¹ and the “Hu LTBP1-proTGFβ1 Koff” value amounted to 6e-05 s⁻¹.

B5: SR-AB38: cycle 3 light chain-optimized antibody, lineage SR-AB22; CDRs SEQ ID NO: 142-147 (antibody, V domains shown)
VH: QVQLVESGGGVVQPGRSLRLSCAASGFTFRSYVMHWVRQAPGKGLEWVAVISHEGSLKYYADSVKGRFTISRDNSKNTLYLQMNSLRAEDTAVYYCAVPRIAARRGGFGYWGQGTLVTVSS
VL: NFMLTQPHSVSESPGKTVTISCTRSSGSIDNNYVQWYQQRPGSSPTTVIYEDFIRPSGVPDRFSGSIDSSSNSASLTISGLKTEDEADYYCQSYDDDLQGVVFGGGTKLTVL
In the case of B5, in the assay with huLTBP3 proTGFβ1, the “Hu LTBP3-proTGFβ1 Kon” value came out at 502000 M⁻¹ s⁻¹ and the “Hu LTBP3-proTGFβ1 Koff” value is 7.26e-05 s⁻¹. Further, in the assay with huLTBP1 proTGFβ1, the “Hu LTBP1-proTGFβ1 Kon” value turned out to be 327000 M⁻¹ s⁻¹ and the “Hu LTBP1-proTGFβ1 Koff” value is 0.000117 s⁻¹.
